Results: PMC6411374, “Substrate channeling in oxylipin biosynthesis through a protein complex in the plastid envelope of Arabidopsis thaliana” (Journal of Experimental Botany, 2019)

Experiments:
AOS (CYP74A) = target: T1, AOS (CYP74A) (Arabidopsis thaliana, UniProt Q96242); assay: cis-(+)-12-OPDA formation by free enzymes, HPLC / GC-MS; type: biochemical; conditions: free enzymes (SDS-dissociated, dialyzed complex), read-out coupled through AOC2; 10 min
T1 construct: free enzyme from SDS-dissociated, dialyzed envelope complex; bacterially expressed C-terminal (His)6 AOS, imported into Arabidopsis chloroplasts (transit peptide cleaved)
T1 sequence (Q96242 34-518): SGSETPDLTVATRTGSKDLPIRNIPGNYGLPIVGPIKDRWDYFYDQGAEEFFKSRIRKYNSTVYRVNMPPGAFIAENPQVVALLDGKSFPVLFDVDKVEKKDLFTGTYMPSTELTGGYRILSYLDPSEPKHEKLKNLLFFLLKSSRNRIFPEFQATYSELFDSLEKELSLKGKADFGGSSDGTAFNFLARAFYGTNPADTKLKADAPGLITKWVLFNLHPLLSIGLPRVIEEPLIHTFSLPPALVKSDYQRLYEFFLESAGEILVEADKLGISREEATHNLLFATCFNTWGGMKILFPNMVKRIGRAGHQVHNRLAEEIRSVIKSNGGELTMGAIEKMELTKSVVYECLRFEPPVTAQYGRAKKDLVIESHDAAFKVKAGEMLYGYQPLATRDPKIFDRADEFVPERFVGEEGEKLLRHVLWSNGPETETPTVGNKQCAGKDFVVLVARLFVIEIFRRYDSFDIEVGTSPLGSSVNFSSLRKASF

[1] = target: LOX2-AOS-AOC2 plastid envelope complex (Arabidopsis thaliana, UniProt P38418); conditions: intact complex, coupled LOX2-AOS-AOC2 turnover; α-LeA is the LOX2 substrate
[2] = target: T2, C-terminal, (His)6-tagged allene oxide synthase [AOS-(His)6] (A. thaliana, UniProt Q96242 34-518); assay: cell-based or functional assay
T2 sequence (looked up): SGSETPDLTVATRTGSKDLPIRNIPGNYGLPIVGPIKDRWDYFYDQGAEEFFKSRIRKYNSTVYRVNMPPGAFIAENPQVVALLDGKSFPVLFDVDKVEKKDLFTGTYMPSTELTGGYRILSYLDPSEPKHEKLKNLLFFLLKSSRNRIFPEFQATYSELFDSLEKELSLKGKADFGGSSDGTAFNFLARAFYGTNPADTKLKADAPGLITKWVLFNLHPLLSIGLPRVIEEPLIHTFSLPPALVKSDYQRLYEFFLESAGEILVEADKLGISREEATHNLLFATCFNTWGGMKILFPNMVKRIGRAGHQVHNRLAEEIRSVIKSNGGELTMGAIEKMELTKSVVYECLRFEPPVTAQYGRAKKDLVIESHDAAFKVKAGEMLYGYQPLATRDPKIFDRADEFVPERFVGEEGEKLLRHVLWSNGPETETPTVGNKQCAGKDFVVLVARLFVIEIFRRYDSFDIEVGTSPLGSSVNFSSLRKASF

[3] = target: the molecule itself; assay: SDS-PAGE with protein sequencing; bands of the proteins co-purified with AOS-(His)6 in peak I; ~72 kDa and ~24 kDa bands both sequenced as AOC2
[4] = target: T2, C-terminal, (His)6-tagged allene oxide …; assay: pull-down; purified (His)6-tagged bait imported into isolated Arabidopsis chloroplasts (2.5 mM Mg-ATP); mixed envelopes solubilised with 1.3% decyl maltoside; Ni-NTA affinity chromatography, size exclusion on Superose 6 (peak I, ~250 kDa); co-purified bands identified by SDS-PAGE with protein sequencing, LOX2 also by western blot; conditions: one partner purified
[5] = target: T3, soluble, catalytically active AOS used for reconstitution of the complex (A. thaliana, UniProt Q96242 34-518); assay: reconstitution of the complex in vitro; complex reconstituted from soluble, catalytically active LOX2, AOS and AOC2 and isolated plastid envelope lipids (Supplementary Fig. S8)
T3 construct: allene oxide synthase (AOS, CYP74A), A. thaliana
T3 sequence: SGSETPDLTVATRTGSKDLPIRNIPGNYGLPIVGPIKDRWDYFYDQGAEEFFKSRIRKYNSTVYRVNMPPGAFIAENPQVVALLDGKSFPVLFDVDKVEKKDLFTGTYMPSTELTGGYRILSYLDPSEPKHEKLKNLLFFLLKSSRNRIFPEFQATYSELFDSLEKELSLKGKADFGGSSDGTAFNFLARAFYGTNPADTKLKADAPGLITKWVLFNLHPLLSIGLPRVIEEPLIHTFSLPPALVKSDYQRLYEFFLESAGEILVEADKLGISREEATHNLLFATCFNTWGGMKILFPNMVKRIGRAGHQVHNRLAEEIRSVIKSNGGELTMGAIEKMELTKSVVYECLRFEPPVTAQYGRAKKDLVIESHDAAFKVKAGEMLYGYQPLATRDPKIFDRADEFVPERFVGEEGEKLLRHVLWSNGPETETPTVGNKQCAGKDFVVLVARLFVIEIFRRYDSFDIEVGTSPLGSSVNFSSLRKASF

Row | Molecule | rate of cis-(+)-12-OPDA formation from α-LeA by the intact LOX2-AOS-AOC2 envelope complex against the free-enzyme assay (complex dissociated with SDS and dialysed) [2] | stoichiometry N [4] | stoichiometry N [5] | further results
1 | CC/C=C\C[C@@H](/C=C/C=C\CCCCCCCC(=O)O)OO [13-HPOT, (9Z11E15Z13S)-13-hydroperoxy-9,11,15-octadecatrienoic acid] |  |  |  | cis-(+)-12-OPDA formation by free enzymes, HPLC / GC-MS (AOS (CYP74A)): but it was accepted in the free-enzyme assay (Fig. 5C)
2 | CC/C=C\C/C=C\C/C=C\CCCCCCCC(=O)O [α-linolenic acid] |  |  |  | cis-(+)-12-OPDA formation by isolated complex, HPLC / GC-MS [1]: α-LeA was converted to cis-(+)-12-OPDA by the isolated, intact (non-SDS-dissociated) plastid envelope complex
3 | allene oxide cyclase 2 (AOC2), endogenous in the envelope of Arabidopsis chloroplasts (enzyme, UniProt Q9LS02 78-253, looked up, allene oxide cyclase 2 (AOC2), A. thaliana, ~72 kDa (SDS-resistant trimer) and ~24 kDa (monomer) bands of the plastid envelope; Found both as trimer and as monomer; source: endogenous, envelopes of isolated Arabidopsis chloroplasts) PSKVQELSVYEINELDRHSPKILKNAFSLMFGLGDLVPFTNKLYTGDLKKRVGITAGLCVVIEHVPEKKGERFEATYSFYFGDYGHLSVQGPYLTYEDSFLAITGGAGIFEGAYGQVKLQQLVYPTKLFYTFYLKGLANDLPLELTGTPVPPSKDIEPAPEAKALEPSGVISNYTN | 120 fold | 4 |  | stoichiometry N [3]: 3
4 | soluble, catalytically active AOC2 used for reconstitution of the complex (enzyme, A. thaliana, allene oxide cyclase 2 (AOC2), A. thaliana) PSKVQELSVYEINELDRHSPKILKNAFSLMFGLGDLVPFTNKLYTGDLKKRVGITAGLCVVIEHVPEKKGERFEATYSFYFGDYGHLSVQGPYLTYEDSFLAITGGAGIFEGAYGQVKLQQLVYPTKLFYTFYLKGLANDLPLELTGTPVPPSKDIEPAPEAKALEPSGVISNYTN |  |  | 4 | 
5 | lipoxygenase 2 (LOX2), endogenous in the envelope of Arabidopsis chloroplasts (enzyme, UniProt P38418 57-896, looked up, lipoxygenase 2 (LOX2), A. thaliana, ~100 kDa band of the plastid envelope; also called 13-lipoxygenase; source: endogenous, envelopes of isolated Arabidopsis chloroplasts) ANIEQEGNTVKEPIQNIKVKGYITAQEEFLEGITWSRGLDDIADIRGRSLLVELISAKTDQRITVEDYAQRVWAEAPDEKYECEFEMPEDFGPVGAIKIQNQYHRQLFLKGVELKLPGGSITFTCESWVAPKSVDPTKRIFFSDKSYLPSQTPEPLKKYRKEELETLQGKNREEVGEFTKFERIYDYDVYNDVGDPDNDPELARPVIGGLTHPYPRRCKTGRKPCETDPSSEQRYGGEFYVPRDEEFSTAKGTSFTGKAVLAALPSIFPQIESVLLSPQEPFPHFKAIQNLFEEGIQLPKDAGLLPLLPRIIKALGEAQDDILQFDAPVLINRDRFSWLRDDEFARQTLAGLNPYSIQLVEEWPLISKLDPAVYGDPTSLITWEIVEREVKGNMTVDEALKNKRLFVLDYHDLLLPYVNKVRELNNTTLYASRTLFFLSDDSTLRPVAIELTCPPNINKPQWKQVFTPGYDATSCWLWNLAKTHAISHDAGYHQLISHWLRTHACTEPYIIAANRQLSAMHPIYRLLHPHFRYTMEINARARQSLVNGGGIIETCFWPGKYALELSSAVYGKLWRFDQEGLPADLIKRGLAEEDKTAEHGVRLTIPDYPFANDGLILWDAIKEWVTDYVKHYYPDEELITSDEELQGWWSEVRNIGHGDKKDEPWWPVLKTQDDLIGVVTTIAWVTSGHHAAVNFGQYGYGGYFPNRPTTTRIRMPTEDPTDEALKEFYESPEKVLLKTYPSQKQATLVMVTLDLLSTHSPDEEYIGEQQEASWANEPVINAAFERFKGKLQYLEGVIDERNVNITLKNRAGAGVVKYELLKPTSEHGVTGMGVPYSISI | 120 fold | 1 |  | 
6 | soluble, catalytically active LOX2 used for reconstitution of the complex (enzyme, A. thaliana, UniProt P38418 57-896, looked up, lipoxygenase 2 (LOX2), A. thaliana) ANIEQEGNTVKEPIQNIKVKGYITAQEEFLEGITWSRGLDDIADIRGRSLLVELISAKTDQRITVEDYAQRVWAEAPDEKYECEFEMPEDFGPVGAIKIQNQYHRQLFLKGVELKLPGGSITFTCESWVAPKSVDPTKRIFFSDKSYLPSQTPEPLKKYRKEELETLQGKNREEVGEFTKFERIYDYDVYNDVGDPDNDPELARPVIGGLTHPYPRRCKTGRKPCETDPSSEQRYGGEFYVPRDEEFSTAKGTSFTGKAVLAALPSIFPQIESVLLSPQEPFPHFKAIQNLFEEGIQLPKDAGLLPLLPRIIKALGEAQDDILQFDAPVLINRDRFSWLRDDEFARQTLAGLNPYSIQLVEEWPLISKLDPAVYGDPTSLITWEIVEREVKGNMTVDEALKNKRLFVLDYHDLLLPYVNKVRELNNTTLYASRTLFFLSDDSTLRPVAIELTCPPNINKPQWKQVFTPGYDATSCWLWNLAKTHAISHDAGYHQLISHWLRTHACTEPYIIAANRQLSAMHPIYRLLHPHFRYTMEINARARQSLVNGGGIIETCFWPGKYALELSSAVYGKLWRFDQEGLPADLIKRGLAEEDKTAEHGVRLTIPDYPFANDGLILWDAIKEWVTDYVKHYYPDEELITSDEELQGWWSEVRNIGHGDKKDEPWWPVLKTQDDLIGVVTTIAWVTSGHHAAVNFGQYGYGGYFPNRPTTTRIRMPTEDPTDEALKEFYESPEKVLLKTYPSQKQATLVMVTLDLLSTHSPDEEYIGEQQEASWANEPVINAAFERFKGKLQYLEGVIDERNVNITLKNRAGAGVVKYELLKPTSEHGVTGMGVPYSISI |  |  | 1 | 
